Values of other authors as cited in paper PMC5662687.

Target: ICAM-1 (Homo sapiens) (UniProt P05362)
Sequence (P05362 28-480): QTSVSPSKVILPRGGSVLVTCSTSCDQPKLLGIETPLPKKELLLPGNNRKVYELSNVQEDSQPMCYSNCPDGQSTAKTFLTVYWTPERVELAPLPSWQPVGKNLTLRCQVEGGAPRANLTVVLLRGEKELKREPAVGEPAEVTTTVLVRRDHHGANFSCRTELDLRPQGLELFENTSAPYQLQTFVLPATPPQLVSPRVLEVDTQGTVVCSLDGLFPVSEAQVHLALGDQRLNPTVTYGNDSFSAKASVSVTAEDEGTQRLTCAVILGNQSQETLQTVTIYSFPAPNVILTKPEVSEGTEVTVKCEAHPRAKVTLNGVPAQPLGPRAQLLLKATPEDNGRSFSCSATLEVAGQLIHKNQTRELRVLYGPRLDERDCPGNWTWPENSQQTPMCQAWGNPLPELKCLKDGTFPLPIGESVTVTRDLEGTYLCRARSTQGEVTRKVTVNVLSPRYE

Chain of LFA-1 (P20701 26-1090): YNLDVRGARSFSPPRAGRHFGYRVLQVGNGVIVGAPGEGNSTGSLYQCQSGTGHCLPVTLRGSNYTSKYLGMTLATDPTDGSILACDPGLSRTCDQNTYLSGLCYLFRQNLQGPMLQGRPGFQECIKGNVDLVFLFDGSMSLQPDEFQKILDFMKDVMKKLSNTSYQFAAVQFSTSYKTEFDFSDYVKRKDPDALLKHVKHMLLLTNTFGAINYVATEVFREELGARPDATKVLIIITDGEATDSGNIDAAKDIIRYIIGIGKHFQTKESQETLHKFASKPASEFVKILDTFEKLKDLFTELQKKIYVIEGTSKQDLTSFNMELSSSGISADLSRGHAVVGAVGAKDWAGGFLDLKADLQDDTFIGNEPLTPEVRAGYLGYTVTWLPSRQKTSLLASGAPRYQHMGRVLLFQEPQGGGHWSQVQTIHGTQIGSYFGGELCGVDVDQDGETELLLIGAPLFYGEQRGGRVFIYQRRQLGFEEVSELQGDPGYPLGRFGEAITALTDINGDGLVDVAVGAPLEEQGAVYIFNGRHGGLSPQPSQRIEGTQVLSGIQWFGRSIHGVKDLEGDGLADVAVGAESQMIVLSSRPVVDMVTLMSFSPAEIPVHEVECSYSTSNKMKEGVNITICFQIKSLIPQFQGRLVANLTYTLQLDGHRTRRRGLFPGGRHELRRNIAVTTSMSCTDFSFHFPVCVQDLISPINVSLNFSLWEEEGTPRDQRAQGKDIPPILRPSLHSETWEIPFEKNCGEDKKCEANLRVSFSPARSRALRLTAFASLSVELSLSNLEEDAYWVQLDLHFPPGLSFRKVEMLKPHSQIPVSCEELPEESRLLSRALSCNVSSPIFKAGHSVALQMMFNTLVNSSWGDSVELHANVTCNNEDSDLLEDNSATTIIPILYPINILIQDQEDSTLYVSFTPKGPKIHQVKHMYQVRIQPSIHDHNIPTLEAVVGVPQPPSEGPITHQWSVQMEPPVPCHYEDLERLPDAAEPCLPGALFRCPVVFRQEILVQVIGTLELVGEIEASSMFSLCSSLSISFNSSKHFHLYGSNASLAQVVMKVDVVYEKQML
Chain of LFA-1 (P05107 23-700, further chain): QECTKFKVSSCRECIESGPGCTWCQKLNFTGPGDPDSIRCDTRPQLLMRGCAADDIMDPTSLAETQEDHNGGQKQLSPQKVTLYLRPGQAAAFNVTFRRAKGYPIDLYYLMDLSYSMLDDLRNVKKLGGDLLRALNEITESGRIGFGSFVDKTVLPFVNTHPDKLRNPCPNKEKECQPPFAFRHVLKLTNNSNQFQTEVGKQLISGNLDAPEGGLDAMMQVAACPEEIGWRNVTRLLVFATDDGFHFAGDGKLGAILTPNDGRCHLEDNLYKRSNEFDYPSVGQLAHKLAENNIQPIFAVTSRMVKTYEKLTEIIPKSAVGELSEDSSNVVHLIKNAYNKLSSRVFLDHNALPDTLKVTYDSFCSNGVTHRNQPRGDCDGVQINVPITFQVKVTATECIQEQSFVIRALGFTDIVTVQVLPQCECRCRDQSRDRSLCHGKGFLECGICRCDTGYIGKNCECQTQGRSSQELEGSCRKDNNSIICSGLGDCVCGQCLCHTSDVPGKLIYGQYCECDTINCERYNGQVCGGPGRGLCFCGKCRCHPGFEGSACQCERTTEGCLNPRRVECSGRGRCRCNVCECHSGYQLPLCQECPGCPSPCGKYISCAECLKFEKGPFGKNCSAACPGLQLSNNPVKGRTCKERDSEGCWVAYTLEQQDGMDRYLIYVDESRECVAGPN

Kd: 1 mM
Substance: LFA-1 (from UniProt P20701)
